Source: patent publication US10450368 (DUKE UNIVERSITY, dated 2019)

Key:
[1] = molecular target: T1, STUB-1 (human, UniProt Q9UNE7 1-303); assay: ProtoArray human protein microarray
T1 sequence: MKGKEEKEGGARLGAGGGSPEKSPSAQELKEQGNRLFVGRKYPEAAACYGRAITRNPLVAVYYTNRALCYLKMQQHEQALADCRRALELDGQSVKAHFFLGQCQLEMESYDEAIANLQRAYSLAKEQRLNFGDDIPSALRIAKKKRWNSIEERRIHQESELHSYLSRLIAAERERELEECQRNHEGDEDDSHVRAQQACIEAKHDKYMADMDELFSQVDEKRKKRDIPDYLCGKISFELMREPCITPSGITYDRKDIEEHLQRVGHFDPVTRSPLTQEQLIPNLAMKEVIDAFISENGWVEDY

[2] = molecular target: T2, Histones; assay: AtheNA, Ab 25 ug/ml
T2 construct: Mixture of proteins

[3] = molecular target: T3, Centromere B (UniProt P07199 1-599); assay: AtheNA, Ab 25 ug/ml
T3 construct: also called Cent B
T3 sequence: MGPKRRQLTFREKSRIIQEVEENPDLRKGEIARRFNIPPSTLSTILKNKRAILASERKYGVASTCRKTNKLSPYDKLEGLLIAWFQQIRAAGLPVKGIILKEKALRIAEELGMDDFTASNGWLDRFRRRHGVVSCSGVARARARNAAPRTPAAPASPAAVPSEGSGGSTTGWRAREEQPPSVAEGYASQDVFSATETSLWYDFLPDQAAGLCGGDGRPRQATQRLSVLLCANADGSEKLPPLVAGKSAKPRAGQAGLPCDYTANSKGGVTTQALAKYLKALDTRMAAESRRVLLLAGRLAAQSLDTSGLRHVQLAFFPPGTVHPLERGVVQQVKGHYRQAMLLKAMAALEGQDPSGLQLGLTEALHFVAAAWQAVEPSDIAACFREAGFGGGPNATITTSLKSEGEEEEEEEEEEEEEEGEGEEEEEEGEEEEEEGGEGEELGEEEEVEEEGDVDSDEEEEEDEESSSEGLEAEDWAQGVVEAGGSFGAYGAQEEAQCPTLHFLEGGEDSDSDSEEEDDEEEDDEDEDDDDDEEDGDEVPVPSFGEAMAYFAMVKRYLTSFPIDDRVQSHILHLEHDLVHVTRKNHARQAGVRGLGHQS

[4] = molecular target: T4, RNP (ribonucleoprotein); assay: AtheNA, Ab 25 ug/ml
T4 construct: Protein-RNA complex

[5] = molecular target: T5, Scl-70 (UniProt P11387 1-765); assay: AtheNA, Ab 25 ug/ml
T5 sequence: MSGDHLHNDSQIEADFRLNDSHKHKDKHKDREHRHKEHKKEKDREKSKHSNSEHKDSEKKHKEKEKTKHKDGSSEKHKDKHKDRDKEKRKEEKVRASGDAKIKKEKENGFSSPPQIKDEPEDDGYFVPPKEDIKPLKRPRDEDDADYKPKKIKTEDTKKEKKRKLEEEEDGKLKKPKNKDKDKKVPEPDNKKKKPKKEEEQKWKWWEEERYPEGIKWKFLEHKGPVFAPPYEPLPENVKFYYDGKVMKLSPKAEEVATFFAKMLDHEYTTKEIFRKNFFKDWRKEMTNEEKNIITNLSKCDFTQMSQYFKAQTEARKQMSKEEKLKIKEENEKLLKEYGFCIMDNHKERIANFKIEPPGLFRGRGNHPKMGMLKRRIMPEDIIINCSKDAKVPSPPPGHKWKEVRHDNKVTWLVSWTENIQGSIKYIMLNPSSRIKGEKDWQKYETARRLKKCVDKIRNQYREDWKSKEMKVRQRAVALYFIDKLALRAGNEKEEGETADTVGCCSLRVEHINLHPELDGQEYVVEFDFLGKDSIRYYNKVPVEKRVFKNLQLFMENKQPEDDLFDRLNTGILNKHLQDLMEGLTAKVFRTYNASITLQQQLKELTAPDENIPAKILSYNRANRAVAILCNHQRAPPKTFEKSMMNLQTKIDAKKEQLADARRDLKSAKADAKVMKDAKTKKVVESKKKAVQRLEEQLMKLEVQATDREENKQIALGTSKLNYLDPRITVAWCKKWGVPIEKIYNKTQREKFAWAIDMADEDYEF

[6] = molecular target: T6, Sm (Smith antigen); assay: AtheNA, Ab 12.5 ug/ml
T6 construct: Protein complex
Text: (§1) AtheNA Multi-Lyte ANA Plus Test System is one such assay. This is luminex-based assay, which is also used to screen patient sera.

[7] = molecular target: T7, SSA; assay: AtheNA, Ab 12.5 ug/ml
T7 construct: also called SSA (Ro)
Text: as §1

[8] = molecular target: T2, Histones; assay: AtheNA, Ab 12.5 ug/ml
Text: as §1

[9] = molecular target: T8, SSB (UniProt P05455 1-408); assay: AtheNA, Ab 12.5 ug/ml
T8 sequence: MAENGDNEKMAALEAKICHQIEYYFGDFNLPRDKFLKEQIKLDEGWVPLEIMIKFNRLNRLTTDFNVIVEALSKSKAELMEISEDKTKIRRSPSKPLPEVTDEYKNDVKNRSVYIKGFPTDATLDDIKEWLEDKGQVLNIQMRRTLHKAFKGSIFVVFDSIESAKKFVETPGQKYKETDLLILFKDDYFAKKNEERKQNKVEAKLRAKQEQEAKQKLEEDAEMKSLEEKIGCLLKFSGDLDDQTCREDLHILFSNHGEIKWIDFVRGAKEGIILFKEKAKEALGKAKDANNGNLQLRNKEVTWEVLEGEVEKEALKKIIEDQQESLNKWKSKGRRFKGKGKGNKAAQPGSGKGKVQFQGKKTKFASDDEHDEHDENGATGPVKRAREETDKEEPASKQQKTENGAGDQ
Text: as §1

[10] = molecular target: T4, RNP (ribonucleoprotein); assay: AtheNA, Ab 12.5 ug/ml
Text: as §1

[11] = molecular target: T5, Scl-70; assay: AtheNA, Ab 12.5 ug/ml
Text: as §1

[12] = molecular target: T9, HIV-1 CH505 transmitted/founder gp120 Env (HIV-1); assay: direct-binding ELISA (OD450), panel 'CH505.TF gp120'
T9 construct: domain: gp120; also called CH505.TF gp120; CH505 TF gp120 Env

[13] = molecular target: T9, HIV-1 CH505 transmitted/founder gp120 …; assay: SPR, antibody captured on anti-human Ig Fc, gp120 injected

B1: CH557 (antibody, V domains shown)
VH: QVRLAQYGGGVKRLGATMTLSCVASGYTFNDYYIHWVRQAPGQGFELLGYIDPANGRPDYAGALRERLSFYRDKSMETLYMDLRSLRYDDTAMYYCVRNVGTAGSLLHYDHWGSGSPVIVSS
VL: EIVLTQSPATLSASPGERVTLTCRASRSVRNNVAWYQHKGGQSPRLLIYDASTRAAGVPARFSGSASGTEFTLAISNLESEDFTVYFCLQYNNWWTFGQGTRVDIK
notes: also called CH235.12; CH557_4A/293i
Q: Does B1 bind [1]?
A: no binding

Q: And the AtheNA signal [2]?
A: 8 relative luminescence units

Q: What about the AtheNA signal [3] of the same binder?
A: 25 relative luminescence units

Q: And the AtheNA signal [4]?
A: 6 relative luminescence units

Q: What about the AtheNA signal [5] of the same binder?
A: 4 relative luminescence units

B2: CH493 (antibody, V domains shown)
VH: QVRLLQYGGGVKRPGASMTISCVASGYNFNDYYIHWVRQAPGQGLELMGWIDPSGGRTDYAGAFGDRVSMYRDKSMNTLYMDLRSLRSGDTAMYYCVRNVGTAGSLLHYDHWGLGVMVTVSS
VL: EIVLTQSPATLSVSPGERVTLSCRASQSVRNNLAWYRQKRGQAPRLLIYGASTRATGIPARFSGSGSGTEFTLTISSMQSEDFAVYYCQQYNNWWTFGQGTKVEIK
notes: also called CH235.9; DH493
Q: Which results are given for B2?
A: AtheNA signal [6]: 42; AtheNA signal [7]: 54; AtheNA signal [8]: 200; AtheNA signal [9]: 22; AtheNA signal [10]: 49; AtheNA signal [11]: 26; EC50 (read off the curve) [12]: ~0.7 µg/mL

B3: CH241 (antibody, V domains shown)
VH: QVQLVQSGAAVKKPGASVRVSCKASGYTFTSSHIHWVRQAPGQGPEWMGMIDPSVGRPTTAGKFQGRVTMTRDRYTSTAYMDLSSLRSEDTAVYYCARSVETTGSLLYFDYWGQGTLITVSS
VL: EIVLTQSPATLSVSPGERATLSCRASQSVRSNIAWYQQKPGQAPRLLIHGASTRATGIPGRFSGSGSGPEFTLAISSVQSEDFAVYYCQQYNDWWTFGQGTKVEIK
Q: Which results are given for B3?
A: Kd [13]: 0.7 nM; koff [13]: 0.00033 s⁻¹
